Measured values: patent US20260159603A1 (BEAM THERAPEUTICS, published 2026)
Where a chain is given by its changes, count along the chain named.

T1: biotinylated human CD5-HIS (human, UniProt P06127 25-372, biotinylated)
T1 construct: Loaded onto streptavidin Octet pins; also called huCD5; SA-human CD5; not shown: HIS tag
T1 sequence (looked up): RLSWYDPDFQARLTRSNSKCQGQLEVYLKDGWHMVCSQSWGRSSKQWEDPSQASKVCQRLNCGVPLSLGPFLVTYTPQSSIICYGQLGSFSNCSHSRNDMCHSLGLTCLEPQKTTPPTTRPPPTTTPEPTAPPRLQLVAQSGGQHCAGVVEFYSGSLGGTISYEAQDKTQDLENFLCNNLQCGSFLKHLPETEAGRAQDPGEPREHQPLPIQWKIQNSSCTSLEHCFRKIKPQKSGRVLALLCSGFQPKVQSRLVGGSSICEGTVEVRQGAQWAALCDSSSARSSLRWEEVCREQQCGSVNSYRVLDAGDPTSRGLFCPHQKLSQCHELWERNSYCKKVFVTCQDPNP

T2: human CD5 on transfected HEK293T cells (human, UniProt P06127 25-495)
T2 construct: whole, on cells; also called huCD5; Human CD5 Cells
T2 sequence (looked up): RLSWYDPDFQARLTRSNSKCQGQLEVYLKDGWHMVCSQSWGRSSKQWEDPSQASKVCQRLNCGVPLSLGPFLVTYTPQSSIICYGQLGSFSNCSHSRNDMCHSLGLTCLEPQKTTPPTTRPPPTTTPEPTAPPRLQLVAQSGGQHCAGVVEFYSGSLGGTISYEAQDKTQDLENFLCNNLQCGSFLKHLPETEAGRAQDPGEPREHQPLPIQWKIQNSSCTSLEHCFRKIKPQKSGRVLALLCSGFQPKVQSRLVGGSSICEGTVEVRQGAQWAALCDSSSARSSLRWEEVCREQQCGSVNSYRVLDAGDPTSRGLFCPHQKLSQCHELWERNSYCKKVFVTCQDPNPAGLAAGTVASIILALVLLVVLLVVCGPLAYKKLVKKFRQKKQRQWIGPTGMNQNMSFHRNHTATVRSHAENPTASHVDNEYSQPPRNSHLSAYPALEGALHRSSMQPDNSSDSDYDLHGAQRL

B1: ABTx322 (VHH)
VHH: QLQLVESGGGLVQPGGSLRLSCAASGSDFLVDATTWFRQAPGNQREFVAIMDIGGVTEYADSVKGRFTISRDHTKNTVYLQMNSLKVEDTAVYYCNTRGLWGQGTLVTVSS
notes: VHH in periplasmic extract of the phage display clone; also called clone 660; not shown: c-myc tag of the phagemid construct (detected with anti-c-myc 9E10)
B2: ABTx325 (VHH)
VHH: QVQLVESGGGLVQPGGSLRLSCAASGSDASTNNMAWYRQAPGKEREFVALIRTGGSTHVADSMKGRFTISRENAKNTVYLQMNSLKPEDTAVYYCVIWTGSPGALSDYWGQGTQVTVSS
notes: VHH in periplasmic extract of the phage display clone; also called clone 420; not shown: c-myc tag of the phagemid construct (detected with anti-c-myc 9E10)
B3: ABTx326 (VHH)
VHH: QVQLVESGGGLVQPGGSLRLSCAASGRTFINYAAGWFRQAPGKEREFVARISRSGGRTDYADSVKGRFTISRDNAKSTVYLQMNSLRPEDTAVYYCAEATVWEFTDGADQYDYWGQGTQVTVSS
notes: VHH in periplasmic extract of the phage display clone; also called clone 199; not shown: c-myc tag of the phagemid construct (detected with anti-c-myc 9E10)
B4: ABTx329 (VHH)
VHH: QLQLVESGGGLVQPGESLRLSCAASGFSFSRVGMNWYRQAPGKERELVASISSDGSRTNYAHFVKGRFTISRDNVKNMVYLQMNSLKLEDTAVYYCNVPGNSWGQGTQVTVSS
notes: VHH in periplasmic extract of the phage display clone; also called clone 1091; not shown: c-myc tag of the phagemid construct (detected with anti-c-myc 9E10)
B5: ABTx323 (VHH)
VHH: QVQLQESGGGLVQAGGSLRLSCATSGITSSINVIGWYRQAPGKQRELVALVNSGGQTHYADSVKGRFTISRDNAKNTVFLQMNSLKPEDTAEYYCHGRYGIDNYWGEGTQVTVSS
notes: VHH in periplasmic extract of the phage display clone; also called clone 155; not shown: c-myc tag of the phagemid construct (detected with anti-c-myc 9E10)
B6: ABTx324 (VHH)
VHH: QVQLVESGGGLVQPGGSVRLSCATSGSIFSTNVMGWYRQAPGKEREFVALIRGGGSTHYADSVKGRFIISRENAKTTVYLQMNGLKPEDTAVYYCVIWLGSPGAMSDYWGQGTQVTVSS
notes: VHH in periplasmic extract of the phage display clone; also called clone 550; not shown: c-myc tag of the phagemid construct (detected with anti-c-myc 9E10)
B7: ABTx321 (VHH)
VHH: QLQLVESGGGLVQPGESLRLSCVVSGDIFSFVGWGWYRQAPGKQREVVAQISTGGLTNYADSVKGRFAISRDNAKRTVYLQMNSLKFEDTAVYYCNVPGHPWGQGTQVTVSS
notes: VHH in periplasmic extract of the phage display clone; also called clone 1043; not shown: c-myc tag of the phagemid construct (detected with anti-c-myc 9E10)
B8: ABTx328 (VHH)
VHH: B7 VHH with L2V, V32I, V47L, S52N, N58D, A68T, V97F, P101S
notes: VHH in periplasmic extract of the phage display clone; also called clone 1050; not shown: c-myc tag of the phagemid construct (detected with anti-c-myc 9E10)
B9: ABTx319 (VHH)
VHH: QVQLVESGGGLVQPGGSLRLSCAASGFTFSMYSMSWVRQAPGKRLEWVSSISTGARDTAYADSVKGRFTISRDNADNTLYLHMNNLKPEDTAVYYCANGDLRYGPDGYDYRGQGTQVTVSS
notes: VHH in periplasmic extract of the phage display clone; also called clone 917; not shown: c-myc tag of the phagemid construct (detected with anti-c-myc 9E10)
B10: ABTx318 (VHH)
VHH: QVQLQESGGGSVQAGGSLRLSCAASGRAFSAYAMGWFRQAPGKEREFVAAINWNGDTALRWNGFATRYADSVKGRFTISRVIAKNTVNLQMNSLKPEDTAVYYCAADTVVSGSYYLAARAEDYEYWGQGTQVTVSS
notes: VHH in periplasmic extract of the phage display clone; also called clone 333; not shown: c-myc tag of the phagemid construct (detected with anti-c-myc 9E10)
B11: ABTx327 (VHH)
VHH: QVQLVESGGGLVQPGGSLRLSCVASGGTFSTYGMGWFRQAPGKEREFVAVITGSGVGTQYADSVKDRFTISRENAKNTVYLQMNTLKLEDTAVYYCVSGHRPGWAVIRADAYEYWGQGTQVTVSS
notes: VHH in periplasmic extract of the phage display clone; also called clone 834; not shown: c-myc tag of the phagemid construct (detected with anti-c-myc 9E10)
B12: ABTx320 (VHH)
VHH: QVQLVESGGGLVQAGGSLRLSCAASGPAFSSSGMGWFRQAPGKAREFVASMDWTGGSTYYGDSVKGRFTVSRDNAKMTVHLQMNSLRPEDTAVYYCARGTSGVAAVNLRGFFSWGPGTQVTVSS
notes: VHH in periplasmic extract of the phage display clone; also called clone 157; not shown: c-myc tag of the phagemid construct (detected with anti-c-myc 9E10)

Each binder was assayed against T3, biotinylated cynomolgus CD5-HIS (cynomolgus) (assay: BLI (Octet), biotinylated CD5-HIS on streptavidin pins, periplasmic extract, off-rate).
T3 construct: Loaded onto streptavidin Octet pins; also called CynoCD5; SA-Cyno CD5

Point of comparison: B6, koff 0.0177 s⁻¹. Against it:
- B1 — 6.3-fold lower, 0.0028 s⁻¹
- B2 — within 1.5-fold, 0.0143 s⁻¹
- B3 — 4.3-fold lower, 0.00415 s⁻¹
- B4 — 36-fold lower, 0.000488 s⁻¹
- B5 — 51-fold lower, 0.000347 s⁻¹
- B7 — within 1.5-fold, 0.0136 s⁻¹
- B8 — 280-fold lower, 6.34e-05 s⁻¹
- B9 — 3-fold higher, 0.0531 s⁻¹
- B10 — 3.1-fold higher, 0.0546 s⁻¹
- B11 — 1.9-fold higher, 0.0329 s⁻¹
- B12 — 23-fold lower, 0.000757 s⁻¹

What follows are binders tested against T1, biotinylated human CD5-HIS in the same assay as above.

Point of comparison: B10, koff 0.0138 s⁻¹. Against it:
- B1 — 42-fold lower, 0.000331 s⁻¹
- B2 — 5.1-fold lower, 0.0027 s⁻¹
- B3 — 17-fold lower, 0.000825 s⁻¹
- B4 — 37-fold lower, 0.000372 s⁻¹
- B5 — 100-fold lower, 0.000138 s⁻¹
- B6 — 5.1-fold lower, 0.00271 s⁻¹
- B7 — 1.8-fold lower, 0.0077 s⁻¹
- B8 — 200-fold lower, 7.04e-05 s⁻¹
- B9 — within 1.5-fold, 0.0116 s⁻¹
- B11 — within 1.5-fold, 0.0195 s⁻¹
- B12 — 10-fold lower, 0.00137 s⁻¹

The binders below were run against T3, biotinylated cynomolgus CD5-HIS (assay: BLI (Octet), biotinylated CD5-HIS on streptavidin pins).

Point of comparison: B2, Kd 1.8 nM. Against it:
- B1 — 1.6-fold lower, 1.1 nM
- B3 — within 1.5-fold, 2.2 nM
- B4 — within 1.5-fold, 1.6 nM
- B5 — within 1.5-fold, 1.3 nM
- B6 — within 1.5-fold, 2.3 nM
- B7 — 4.9-fold lower, 0.37 nM
- B8 — 1.9-fold lower, 0.93 nM
- B9 — within 1.5-fold, 2.2 nM
- B10 — within 1.5-fold, 2.4 nM
- B11 — 2.3-fold lower, 0.78 nM
- B12 — within 1.5-fold, 2.6 nM

Point of comparison: B2, koff 0.00013 s⁻¹. Against it:
- B1 — within 1.5-fold, 0.00011 s⁻¹
- B3 — within 1.5-fold, 0.00015 s⁻¹
- B4 — within 1.5-fold, 0.00017 s⁻¹
- B5 — within 1.5-fold, 0.00012 s⁻¹
- B6 — within 1.5-fold, 0.00016 s⁻¹
- B7 — within 1.5-fold, 8.8e-05 s⁻¹
- B8 — within 1.5-fold, 0.00018 s⁻¹
- B9 — 1.5-fold higher, 0.0002 s⁻¹
- B10 — 1.7-fold higher, 0.00022 s⁻¹
- B11 — within 1.5-fold, 0.00011 s⁻¹
- B12 — 1.5-fold higher, 0.0002 s⁻¹

Point of comparison: B6, kon 71000 M⁻¹ s⁻¹. Against it:
- B1 — within 1.5-fold, 97000 M⁻¹ s⁻¹
- B2 — within 1.5-fold, 68000 M⁻¹ s⁻¹
- B3 — within 1.5-fold, 68000 M⁻¹ s⁻¹
- B4 — 1.5-fold higher, 110000 M⁻¹ s⁻¹
- B5 — within 1.5-fold, 89000 M⁻¹ s⁻¹
- B7 — 3.4-fold higher, 240000 M⁻¹ s⁻¹
- B8 — 2.7-fold higher, 190000 M⁻¹ s⁻¹
- B9 — within 1.5-fold, 94000 M⁻¹ s⁻¹
- B10 — within 1.5-fold, 91000 M⁻¹ s⁻¹
- B11 — 2-fold higher, 140000 M⁻¹ s⁻¹
- B12 — within 1.5-fold, 76000 M⁻¹ s⁻¹

The binders below were run against T1, biotinylated human CD5-HIS in the same assay as above.

Point of comparison: B3, Kd 2 nM. Against it:
- B1 — 2-fold lower, 1 nM
- B2 — within 1.5-fold, 1.5 nM
- B4 — 2.9-fold lower, 0.69 nM
- B5 — 1.7-fold lower, 1.2 nM
- B6 — within 1.5-fold, 1.7 nM
- B7 — 8.7-fold lower, 0.23 nM
- B8 — 5.6-fold lower, 0.36 nM
- B9 — within 1.5-fold, 1.8 nM
- B10 — within 1.5-fold, 2.5 nM
- B11 — 9.1-fold lower, 0.22 nM
- B12 — within 1.5-fold, 2.8 nM

Point of comparison: B9, koff 0.00013 s⁻¹. Against it:
- B1 — within 1.5-fold, 0.0001 s⁻¹
- B2 — the same, 0.00013 s⁻¹
- B3 — within 1.5-fold, 0.00015 s⁻¹
- B4 — within 1.5-fold, 9.3e-05 s⁻¹
- B5 — within 1.5-fold, 0.00011 s⁻¹
- B6 — within 1.5-fold, 0.00017 s⁻¹
- B7 — 2.5-fold lower, 5.2e-05 s⁻¹
- B8 — within 1.5-fold, 9.2e-05 s⁻¹
- B10 — within 1.5-fold, 0.00016 s⁻¹
- B11 — 3.6-fold lower, 3.6e-05 s⁻¹
- B12 — within 1.5-fold, 0.00019 s⁻¹

Point of comparison: B7, kon 220000 M⁻¹ s⁻¹. Against it:
- B1 — 2.3-fold lower, 95000 M⁻¹ s⁻¹
- B2 — 2.4-fold lower, 90000 M⁻¹ s⁻¹
- B3 — 3-fold lower, 74000 M⁻¹ s⁻¹
- B4 — 1.7-fold lower, 130000 M⁻¹ s⁻¹
- B5 — 2.4-fold lower, 93000 M⁻¹ s⁻¹
- B6 — 2.2-fold lower, 99000 M⁻¹ s⁻¹
- B8 — within 1.5-fold, 260000 M⁻¹ s⁻¹
- B9 — 3.1-fold lower, 72000 M⁻¹ s⁻¹
- B10 — 3.4-fold lower, 65000 M⁻¹ s⁻¹
- B11 — within 1.5-fold, 160000 M⁻¹ s⁻¹
- B12 — 3.2-fold lower, 69000 M⁻¹ s⁻¹

The binders below were run against T2, human CD5 on transfected HEK293T cells (assay: flow cytometry, periplasmic extract on transfected HEK293T cells).

Point of comparison: B3, “percent of cells showing binding” value 41.6%. Against it:
- B1 — higher, 70.1%
- B2 — higher, 77.4%
- B4 — higher, 72%
- B5 — higher, 64.1%
- B6 — higher, 73.3%
- B7 — higher, 84.9%
- B8 — higher, 45.4%
- B9 — higher, 74.8%
- B10 — higher, 84.9%
- B11 — higher, 68%
- B12 — higher, 80.3%

Each binder was assayed against T4, cynomolgus CD5 on transfected HEK293T cells (cynomolgus (Table 8B); rhesus macaque …) in the same assay as above.
T4 construct: whole, on cells; also called Cynomolgus CD5 Cells; rhesus macaque (Macaca mulatta) CD5

Point of comparison: B12, “percent of cells showing binding” value 77.7%. Against it:
- B1 — higher, 82.3%
- B2 — higher, 80%
- B3 — lower, 58.4%
- B4 — lower, 66.5%
- B5 — lower, 54.6%
- B6 — lower, 73.2%
- B7 — higher, 87.7%
- B8 — lower, 40.7%
- B9 — lower, 62.6%
- B10 — lower, 67.1%
- B11 — lower, 71.7%

What follows are binders tested against T1, biotinylated human CD5-HIS (assay: BLI; KD on human CD5 divided by KD on cynomolgus CD5).

Point of comparison: B2, “Hu/Cyno KD” value 0.8. Against it:
- B1 — higher, 0.9
- B3 — higher, 0.9
- B4 — lower, 0.4
- B5 — higher, 0.9
- B6 — lower, 0.7
- B7 — lower, 0.6
- B8 — lower, 0.4
- B9 — the same, 0.8
- B10 — higher, 1
- B11 — lower, 0.3
- B12 — higher, 1.1
